Legend:
FGFR1 = FGFR1 (UniProt P11362); experiment: phosphorylation enrichment, bacterial display (enrichment ratio); higher = better substrate or ligand; peptides without Tyr show the background
Fes = Fes (UniProt P07332); experiment: as above
Hck = Hck (UniProt P08631); experiment: as above
Fer (mouse) = experiment: as above
MERTK = MERTK (UniProt Q12866); experiment: as above
FGFR3 = FGFR3 (UniProt P22607); experiment: as above
Jak2 = Jak2 (UniProt O60674); experiment: as above
EPHB2 = EPHB2 (UniProt P29323); experiment: as above
Sequence of EPHB2 (P29323 whole entry, looked up): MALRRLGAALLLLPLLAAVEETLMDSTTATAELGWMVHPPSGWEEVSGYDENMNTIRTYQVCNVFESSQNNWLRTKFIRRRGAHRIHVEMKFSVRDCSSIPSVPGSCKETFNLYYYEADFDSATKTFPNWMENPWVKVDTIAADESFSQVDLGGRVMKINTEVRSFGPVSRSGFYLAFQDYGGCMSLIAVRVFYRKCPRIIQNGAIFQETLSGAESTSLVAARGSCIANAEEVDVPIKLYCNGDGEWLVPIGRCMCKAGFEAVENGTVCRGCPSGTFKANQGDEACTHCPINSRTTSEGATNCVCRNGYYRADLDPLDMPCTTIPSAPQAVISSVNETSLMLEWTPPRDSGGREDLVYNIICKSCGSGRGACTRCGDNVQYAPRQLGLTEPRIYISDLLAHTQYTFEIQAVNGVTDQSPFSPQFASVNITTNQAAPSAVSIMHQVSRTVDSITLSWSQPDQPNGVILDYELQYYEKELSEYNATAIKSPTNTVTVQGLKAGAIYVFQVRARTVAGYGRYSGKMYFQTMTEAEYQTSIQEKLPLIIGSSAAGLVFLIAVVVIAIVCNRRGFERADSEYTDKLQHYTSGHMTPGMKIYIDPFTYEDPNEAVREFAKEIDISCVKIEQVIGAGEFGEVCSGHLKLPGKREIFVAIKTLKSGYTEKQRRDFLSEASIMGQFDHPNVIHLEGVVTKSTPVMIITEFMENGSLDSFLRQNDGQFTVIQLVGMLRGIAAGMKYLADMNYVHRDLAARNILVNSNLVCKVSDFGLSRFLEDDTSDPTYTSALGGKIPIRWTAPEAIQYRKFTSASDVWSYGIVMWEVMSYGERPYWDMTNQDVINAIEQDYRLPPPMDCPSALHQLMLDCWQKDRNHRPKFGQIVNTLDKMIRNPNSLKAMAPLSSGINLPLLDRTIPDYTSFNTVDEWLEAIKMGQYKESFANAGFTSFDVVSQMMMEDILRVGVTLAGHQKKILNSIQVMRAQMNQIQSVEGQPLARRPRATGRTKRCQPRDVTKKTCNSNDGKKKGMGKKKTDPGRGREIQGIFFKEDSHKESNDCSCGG

c-Abl (mouse) = experiment: as above
c-Src = experiment: as above
AncSZ = experiment: as above
Fyn = Fyn (UniProt P06241); experiment: as above
EPHB1 = EPHB1 (UniProt P54762); experiment: as above
Sequence of EPHB1 (P54762 whole entry, looked up): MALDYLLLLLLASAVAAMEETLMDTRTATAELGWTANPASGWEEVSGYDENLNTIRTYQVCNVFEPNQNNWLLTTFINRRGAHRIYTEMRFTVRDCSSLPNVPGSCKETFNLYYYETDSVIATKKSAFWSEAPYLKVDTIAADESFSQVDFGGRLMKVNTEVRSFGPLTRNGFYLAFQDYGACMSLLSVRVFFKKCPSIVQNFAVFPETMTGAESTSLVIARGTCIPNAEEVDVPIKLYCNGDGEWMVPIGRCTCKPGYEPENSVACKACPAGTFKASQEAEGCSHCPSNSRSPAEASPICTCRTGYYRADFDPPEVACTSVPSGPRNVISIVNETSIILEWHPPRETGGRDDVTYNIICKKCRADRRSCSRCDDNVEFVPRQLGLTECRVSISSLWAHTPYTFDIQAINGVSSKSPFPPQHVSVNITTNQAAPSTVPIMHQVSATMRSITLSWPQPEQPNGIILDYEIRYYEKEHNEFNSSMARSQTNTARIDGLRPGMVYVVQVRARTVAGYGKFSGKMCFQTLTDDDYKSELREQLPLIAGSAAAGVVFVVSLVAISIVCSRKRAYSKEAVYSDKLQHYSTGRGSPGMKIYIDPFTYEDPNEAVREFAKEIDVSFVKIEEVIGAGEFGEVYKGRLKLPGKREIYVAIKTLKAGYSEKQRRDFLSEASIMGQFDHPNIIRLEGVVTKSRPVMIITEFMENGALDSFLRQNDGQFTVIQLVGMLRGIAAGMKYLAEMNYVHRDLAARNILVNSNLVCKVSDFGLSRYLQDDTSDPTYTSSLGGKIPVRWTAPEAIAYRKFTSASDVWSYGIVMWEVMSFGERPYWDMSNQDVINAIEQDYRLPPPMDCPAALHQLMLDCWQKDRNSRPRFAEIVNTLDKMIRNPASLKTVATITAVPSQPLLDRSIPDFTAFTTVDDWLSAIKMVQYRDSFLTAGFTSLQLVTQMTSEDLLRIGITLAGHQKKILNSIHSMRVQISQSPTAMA

c-Src SH2 = experiment: SH2 binding enrichment of the phosphorylated peptide, bacterial display (enrichment ratio); higher = better substrate or ligand; peptides without Tyr show the background
SHP2-C SH2 = experiment: as above
Grb2 SH2 = Grb2 SH2 (UniProt P62993); experiment: as above
Sequence of Grb2 SH2 (P62993 whole entry, looked up, the tested form may be a part): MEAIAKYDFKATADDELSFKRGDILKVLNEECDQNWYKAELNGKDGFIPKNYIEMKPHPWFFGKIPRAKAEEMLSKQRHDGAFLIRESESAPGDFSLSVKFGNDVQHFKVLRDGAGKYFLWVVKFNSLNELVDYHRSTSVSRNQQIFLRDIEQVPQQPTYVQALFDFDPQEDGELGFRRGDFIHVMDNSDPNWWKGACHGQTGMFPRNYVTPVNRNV
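Wherever SH2 binding enrichment of the phosphorylated peptide, bacterial display is given: peptide library displayed on the E. coli surface as eCPX fusions, selected cells deep-sequenced, score is each peptide's frequency after selection divided by its frequency in the input.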
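Wherever phosphorylation enrichment, bacterial display is given: 11-residue human phosphosite peptides and single-mutation variants displayed on the E. coli surface, counted by deep sequencing, each peptide's frequency after selection divided by its frequency in the unselected input library; frequency after pTyr selection over input frequency; kinase dosed for 20-30% of maximal phosphorylation in three min.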

Sequence of FGFR3 (P22607 whole entry, looked up): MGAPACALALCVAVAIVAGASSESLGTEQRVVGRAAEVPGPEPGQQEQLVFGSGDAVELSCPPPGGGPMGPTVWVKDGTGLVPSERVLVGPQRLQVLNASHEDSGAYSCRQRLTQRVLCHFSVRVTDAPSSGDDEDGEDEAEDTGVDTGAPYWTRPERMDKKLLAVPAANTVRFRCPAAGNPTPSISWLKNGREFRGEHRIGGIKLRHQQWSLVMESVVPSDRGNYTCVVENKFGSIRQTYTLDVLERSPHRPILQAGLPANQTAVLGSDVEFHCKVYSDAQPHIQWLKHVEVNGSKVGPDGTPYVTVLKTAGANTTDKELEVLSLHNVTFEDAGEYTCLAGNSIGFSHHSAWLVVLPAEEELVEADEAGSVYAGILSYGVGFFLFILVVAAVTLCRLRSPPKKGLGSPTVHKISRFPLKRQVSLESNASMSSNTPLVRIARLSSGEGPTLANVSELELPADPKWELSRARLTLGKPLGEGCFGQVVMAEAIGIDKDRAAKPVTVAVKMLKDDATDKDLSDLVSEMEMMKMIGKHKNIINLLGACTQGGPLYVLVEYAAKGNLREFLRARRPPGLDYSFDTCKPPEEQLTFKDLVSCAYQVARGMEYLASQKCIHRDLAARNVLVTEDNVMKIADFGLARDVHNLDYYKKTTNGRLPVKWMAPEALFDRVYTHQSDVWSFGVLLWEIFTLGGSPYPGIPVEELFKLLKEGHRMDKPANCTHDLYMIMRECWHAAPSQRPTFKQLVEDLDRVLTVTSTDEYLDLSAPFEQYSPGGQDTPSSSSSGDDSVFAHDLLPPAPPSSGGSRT
Sequence of FGFR1 (P11362 whole entry, looked up): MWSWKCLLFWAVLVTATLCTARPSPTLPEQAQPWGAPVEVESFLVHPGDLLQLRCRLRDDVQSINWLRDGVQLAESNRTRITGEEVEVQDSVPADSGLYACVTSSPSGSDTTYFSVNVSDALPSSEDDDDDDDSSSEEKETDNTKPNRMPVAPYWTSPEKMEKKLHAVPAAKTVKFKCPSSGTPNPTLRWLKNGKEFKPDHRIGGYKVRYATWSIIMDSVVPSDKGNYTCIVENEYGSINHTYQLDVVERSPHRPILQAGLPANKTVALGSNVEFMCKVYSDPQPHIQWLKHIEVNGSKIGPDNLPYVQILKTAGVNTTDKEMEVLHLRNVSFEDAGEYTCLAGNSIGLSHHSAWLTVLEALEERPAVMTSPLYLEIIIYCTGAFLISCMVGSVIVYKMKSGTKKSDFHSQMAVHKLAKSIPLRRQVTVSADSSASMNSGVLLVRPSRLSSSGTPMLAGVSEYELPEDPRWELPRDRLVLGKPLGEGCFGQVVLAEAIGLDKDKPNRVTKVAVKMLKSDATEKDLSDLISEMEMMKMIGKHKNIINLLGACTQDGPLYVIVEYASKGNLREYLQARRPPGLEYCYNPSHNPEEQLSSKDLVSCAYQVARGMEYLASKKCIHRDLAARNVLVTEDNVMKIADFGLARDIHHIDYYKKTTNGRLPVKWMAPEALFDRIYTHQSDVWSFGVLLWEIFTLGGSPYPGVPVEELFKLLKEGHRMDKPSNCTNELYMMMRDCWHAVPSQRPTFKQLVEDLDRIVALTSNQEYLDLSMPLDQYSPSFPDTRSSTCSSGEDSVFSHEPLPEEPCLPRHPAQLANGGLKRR
Sequence of MERTK (Q12866 whole entry, looked up): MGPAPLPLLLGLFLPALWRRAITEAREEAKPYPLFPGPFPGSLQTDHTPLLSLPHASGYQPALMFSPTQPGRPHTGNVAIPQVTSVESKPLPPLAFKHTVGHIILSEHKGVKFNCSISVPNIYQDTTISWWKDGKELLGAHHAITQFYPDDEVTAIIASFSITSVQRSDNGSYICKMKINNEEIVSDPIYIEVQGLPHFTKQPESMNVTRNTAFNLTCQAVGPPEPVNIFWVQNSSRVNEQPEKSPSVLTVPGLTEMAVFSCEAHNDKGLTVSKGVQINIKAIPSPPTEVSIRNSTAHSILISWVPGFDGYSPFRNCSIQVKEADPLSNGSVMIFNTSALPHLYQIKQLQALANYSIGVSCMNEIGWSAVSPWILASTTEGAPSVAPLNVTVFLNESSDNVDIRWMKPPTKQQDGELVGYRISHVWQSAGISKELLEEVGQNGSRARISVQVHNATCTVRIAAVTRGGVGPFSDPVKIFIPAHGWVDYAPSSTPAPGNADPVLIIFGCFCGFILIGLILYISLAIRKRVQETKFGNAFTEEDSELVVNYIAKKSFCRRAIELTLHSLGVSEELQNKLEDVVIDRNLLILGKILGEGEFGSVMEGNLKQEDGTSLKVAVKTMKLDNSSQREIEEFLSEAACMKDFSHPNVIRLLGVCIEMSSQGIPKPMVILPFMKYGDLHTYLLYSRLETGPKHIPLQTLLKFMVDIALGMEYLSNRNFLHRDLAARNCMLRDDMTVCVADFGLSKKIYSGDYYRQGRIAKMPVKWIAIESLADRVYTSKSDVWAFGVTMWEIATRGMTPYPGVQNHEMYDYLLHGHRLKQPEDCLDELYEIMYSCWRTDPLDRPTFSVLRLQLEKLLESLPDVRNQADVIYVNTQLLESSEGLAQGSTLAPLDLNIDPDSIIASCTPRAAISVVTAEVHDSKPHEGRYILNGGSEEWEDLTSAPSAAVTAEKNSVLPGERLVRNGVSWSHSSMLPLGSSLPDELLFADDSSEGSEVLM

Row | Sequence | phosphorylation enrichment (FGFR1) | phosphorylation enrichment (Fes) | phosphorylation enrichment (Hck) | phosphorylation enrichment (Fer (mouse)) | phosphorylation enrichment (MERTK) | phosphorylation enrichment (FGFR3) | phosphorylation enrichment (Jak2) | phosphorylation enrichment (EPHB2) | phosphorylation enrichment (c-Abl (mouse)) | phosphorylation enrichment (c-Src) | phosphorylation enrichment (AncSZ) | phosphorylation enrichment (Fyn) | phosphorylation enrichment (EPHB1) | SH2 binding enrichment (c-Src SH2) | SH2 binding enrichment (SHP2-C SH2) | SH2 binding enrichment (Grb2 SH2)
1 | HHIDFYKKTTN [FGFR1_Y654_YF] | 0.629 | 1.19 | 0.378 | 0.604 | 0.408 | 0.457 | 0.53 | 0.418 | 0.491 | 0.489 | 0.855 | 0.435 | 0.503 | 0.325 | 0.61 | 1.05
2 | HHTDECEYDEL [TGM1_Y134_Y134C] | 0.504 | 1.75 | 0.667 | 0.729 | 0.641 | 1.03 | 1.33 | 0.772 | 0.906 | 0.894 | 1.8 | 0.869 | 0.835 | 0.516 | 0.764 | 1.21
3 | HILFRYPKEFQ [IDS_Y234_P231L] | 0.866 | 1.19 | 0.603 | 0.779 | 0.573 | 0.92 | 1.59 | 0.797 | 0.744 | 1.64 | 1.33 | 0.63 | 0.822 | 0.572 | 0.791 | 0.625
4 | HLEKKYVHRDS [CSF1R_Y708_R710H] | 0.42 | 0.612 | 0.399 | 0.585 | 0.438 | 0.678 | 0.358 | 0.314 | 0.276 | 0.34 | 0.615 | 0.585 | 0.471 | 0.659 | 1.17 | 1.26
5 | HNVPICEGYAL [ACTC1_Y168_Y168C] | 0.732 | 1 | 0.916 | 0.499 | 0.505 | 0.841 | 0.895 | 0.513 | 0.652 | 0.668 | 0.86 | 0.434 | 0.801 | 0.587 | 0.779 | 0.833
6 | HQNGMYRLHQD [SGSH_Y89_G90R] | 0.521 | 0.971 | 0.461 | 0.66 | 0.414 | 0.661 | 0.933 | 0.745 | 0.549 | 0.5 | 0.814 | 0.42 | 0.741 | 0.504 | 0.776 | 0.869
7 | HRAVEYLLMGI [RAD23A_Y197_T200M] | 1.19 | 0.802 | 0.552 | 0.351 | 0.471 | 1.02 | 0.921 | 0.419 | 0.665 | 0.441 | 0.976 | 0.429 | 0.479 | 1.11 | 1.55 | 1.35
8 | HSGVSYFINLC [IGF2R_Y2024_N2020S_YF] | 0.439 | 1.51 | 0.482 | 0.652 | 0.417 | 0.835 | 1.34 | 0.558 | 1.21 | 0.439 | 1.47 | 0.44 | 0.682 | 0.461 | 0.491 | 0.651
9 | HVKHNYECLVF [XRCC5_Y416_I412V_YF] | 0.558 | 1.17 | 0.581 | 1.09 | 0.948 | 0.928 | 1.71 | 1.16 | 1.23 | 0.754 | 1.23 | 0.584 | 1.36 | 3.99 | 0.632 | 1.13
10 | IDGLEYLHSQS [STK11_Y166_G171S] | 0.457 | 1.07 | 0.604 | 0.476 | 0.325 | 0.597 | 0.831 | 0.549 | 0.616 | 0.357 | 0.953 | 0.465 | 0.503 | 0.413 | 0.622 | 0.768
11 | IEKLTYIDKWF [CPS1_Y872] | 0.638 | 0.937 | 0.492 | 0.532 | 0.385 | 0.687 | 0.817 | 0.513 | 0.619 | 0.601 | 0.896 | 0.412 | 0.515 | 0.311 | 0.465 | 0.724
12 | IFGASYVPFAA [RBM47_Y541_YF] | 0.589 | 0.783 | 0.92 | 0.542 | 0.71 | 0.636 | 1.27 | 0.53 | 0.496 | 1 | 0.775 | 0.609 | 0.432 | 0.676 | 0.932 | 0.889
13 | IFLENYNAGTF [CFI_Y421_H418L_YF] | 0.489 | 0.938 | 0.427 | 0.423 | 0.428 | 0.724 | 0.844 | 0.578 | 0.542 | 0.491 | 0.896 | 0.55 | 0.468 | 0.527 | 0.786 | 0.761
14 | IGEGTYGVLFK [CDK2_Y15_V18L_YF] | 0.38 | 0.997 | 6.57 | 0.673 | 1.48 | 0.606 | 0.702 | 1.73 | 0.708 | 5.31 | 0.85 | 8.03 | 1.1 | 0.387 | 0.8 | 0.882
15 | IGNGYYFHVFS [MYBPC3_Y1136_R1138H] | 1.61 | 1.39 | 0.45 | 0.604 | 0.503 | 1.52 | 1.73 | 0.552 | 0.919 | 0.354 | 1.46 | 0.43 | 0.848 | 0.927 | 1.83 | 1.05
16 | IHTEFYDGLFP [BCR_Y561_K558T] | 0.683 | 1.34 | 3.83 | 1.65 | 1.02 | 0.813 | 0.993 | 0.828 | 0.902 | 1.24 | 1.47 | 1.06 | 0.739 | 0.63 | 0.459 | 0.82
17 | ILGRFYETGSI [PAX2_Y73_YF] | 0.423 | 0.779 | 0.451 | 0.4 | 0.428 | 0.578 | 0.566 | 0.515 | 0.52 | 0.414 | 0.737 | 0.5 | 0.489 | 1.17 | 1.17 | 0.85

Row | Sequence | phosphorylation enrichment (FGFR1) | phosphorylation enrichment (Fes) | phosphorylation enrichment (Hck) | phosphorylation enrichment (Fer (mouse)) | phosphorylation enrichment (MERTK) | phosphorylation enrichment (FGFR3) | phosphorylation enrichment (Jak2) | phosphorylation enrichment (EPHB2) | phosphorylation enrichment (c-Abl (mouse)) | phosphorylation enrichment (c-Src) | phosphorylation enrichment (AncSZ) | phosphorylation enrichment (Fyn) | phosphorylation enrichment (EPHB1) | SH2 binding enrichment (c-Src SH2) | SH2 binding enrichment (SHP2-C SH2) | SH2 binding enrichment (Grb2 SH2)
18 | ILGRTHYVNHE [NEDD4_Y627_Y627H] | 0.419 | 0.593 | 0.318 | 0.376 | 0.398 | 0.434 | 0.582 | 0.671 | 0.596 | 0.482 | 0.565 | 0.373 | 0.468 | 0.767 | 1.44 | 5.66
19 | ILNANYMAKRL [GLDC_Y839] | 0.368 | 0.514 | 0.366 | 0.458 | 0.446 | 0.412 | 0.436 | 0.363 | 0.394 | 0.34 | 0.476 | 0.412 | 0.334 | 0.461 | 0.509 | 1.08
20 | ILTFKYLQIPM [KIT_Y547_K550I_YF] | 0.442 | 1.16 | 0.453 | 0.521 | 0.371 | 0.663 | 1.02 | 0.649 | 0.637 | 0.344 | 1.07 | 0.468 | 0.586 | 1.17 | 1.67 | 1.69
21 | IMFTSYFLTIL [TAS2R16_Y239_V235M] | 0.732 | 1.52 | 0.623 | 0.579 | 0.476 | 0.922 | 2.38 | 0.555 | 0.955 | 0.578 | 1.34 | 0.622 | 0.755 | 1.03 | 0.963 | 1.04
22 | IMITDYLLLFR [INSR_Y87] | 1.36 | 1.18 | 0.502 | 0.513 | 0.399 | 1.2 | 1.55 | 0.647 | 0.829 | 0.481 | 1.21 | 0.467 | 0.678 | 1.04 | 1.38 | 1.38
23 | IMVFVYSRVFQ [ADRB2_Y219] | 0.445 | 1.16 | 0.435 | 0.487 | 0.448 | 0.786 | 0.93 | 0.484 | 0.844 | 0.486 | 0.961 | 0.445 | 0.554 | 0.591 | 0.794 | 1.12
24 | INNIDYFKKTT [FGFR2_Y656_YF] | 0.567 | 0.648 | 0.567 | 0.36 | 0.37 | 0.64 | 0.605 | 0.415 | 0.373 | 0.5 | 0.768 | 0.409 | 0.46 | 0.445 | 0.598 | 0.893
25 | IPGGIYNADLN [CST4_Y35_D36N] | 0.542 | 0.95 | 1.27 | 0.472 | 0.443 | 0.516 | 0.746 | 0.366 | 0.654 | 1.36 | 0.748 | 1.27 | 0.514 | 0.635 | 0.646 | 0.943
26 | IPPRRYFRSGV [STAMBP_Y36] | 0.414 | 0.676 | 0.573 | 0.548 | 0.608 | 0.61 | 0.714 | 0.523 | 0.717 | 0.61 | 0.778 | 0.639 | 0.531 | 0.471 | 0.526 | 0.644
27 | IRKKYYRAILE [CHD7_Y1218_Q1214R] | 0.423 | 0.581 | 0.485 | 0.389 | 0.508 | 0.439 | 0.439 | 0.362 | 0.478 | 0.446 | 0.529 | 0.405 | 0.388 | 0.394 | 0.725 | 0.596
28 | IRTDAYVPAMT [RPE65_Y89_R91P] | 0.399 | 0.612 | 0.495 | 0.425 | 0.367 | 0.455 | 0.678 | 0.336 | 0.594 | 0.401 | 0.516 | 0.302 | 0.33 | 0.463 | 0.62 | 0.817
29 | IRTGIYHGGEP [PIK3CA_Y361_V356I] | 0.385 | 0.501 | 0.572 | 0.399 | 0.507 | 0.447 | 0.653 | 0.428 | 0.516 | 0.521 | 0.522 | 0.551 | 0.392 | 0.364 | 0.585 | 0.751
30 | IRTIDYRFTVW [IDS_Y497_YF] | 0.41 | 1.2 | 0.489 | 0.557 | 0.402 | 0.741 | 1.09 | 0.614 | 0.735 | 0.39 | 1.11 | 0.423 | 0.629 | 0.528 | 0.868 | 0.923
31 | ISDEAYVMAGV [ERBB2_Y772_L768S] | 0.494 | 0.81 | 0.541 | 0.564 | 0.436 | 0.736 | 0.656 | 0.53 | 0.62 | 0.504 | 1.15 | 0.603 | 0.495 | 0.543 | 0.6 | 0.811
32 | ISDNACQYMLT [MYH7_Y162_Y162C] | 0.623 | 1.05 | 0.518 | 0.587 | 0.75 | 0.687 | 1.18 | 0.583 | 0.679 | 0.811 | 1 | 0.546 | 0.629 | 0.511 | 0.748 | 0.752
33 | ISIFRYAKGQP [MPZ_Y82_H81R] | 0.486 | 0.937 | 0.402 | 0.414 | 0.49 | 0.685 | 0.969 | 0.577 | 0.574 | 0.404 | 0.791 | 0.464 | 0.461 | 0.596 | 0.534 | 0.843
